Laboratory results as given in US20050203281A1, “Production of recombinant fragments of muscle acetylcholine receptor and their use for ex vivo immunoadsorption of anti-ch receptor antibodies from myasthenic patients” (priority 2002, published 2005).
Entries after “also recorded” stand apart in the source; their conditions may differ. Where two headings read alike, the source gives them in different places.

Tests used:
[1] = test system: anti-AChR autoantibodies from MG sera; assay: Binding of MG patients' autoantibodies to 125I-alpha-BTX-labeled alpha1-210 and hybrid AChR (RIA); set-up: species or system human
Description: 50 MG-positive sera were assayed for binding to alpha1-210 and to a hybrid AChR molecule (HaTbgd) containing human alpha subunit and Torpedo beta, gamma and delta subunits, labeled with ^125I-alpha-BTX. MG sera binding to ^125I-alpha-BTX-alpha1-210 were plotted versus binding to ^125I-alpha-BTX-HaTbgd in a logarithmic scale. […] Samples were processed in duplicates.
70 human sera were screened: 50 MG and 20 healthy controls (5 ul of human sera/sample).

[2] = test system: 125I-alpha-BTX; assay type: binding
Description: FIG. 2 illustrates the binding of alpha-BTX to alpha1-210 of FIG. 1. (A) Scatchard plot analysis of ^125I-alpha-BTX binding to alpha1-210 fragment. Culture supernatants containing alpha1-210 (40 microliters, 40 ul) were incubated with various concentrations of ^125I-alpha-BTX in 10 ul of PBS-0.2 % bovine serum albumin (BSA), then, after 3 hours incubation at 40° C., the samples were filtered through Whatman DE81 filters, and the bound radioactivity measured on a gamma counter (filter assay). Samples were processed in duplicates. […] (B) The specific binding of the ^125I-alpha-BTX to alpha1-210 fragment was studied in competition experiments involving the simultaneous addition of increasing concentrations of unlabeled toxin. Samples were processed in duplicates. Binding of labeled alpha-BTX in the absence of unlabeled alpha-BTX was taken as the 100% level. (C) Effect of deglycosylation on ^125I-alpha-BTX binding to alpha1-210. In vitro deglycosylation was performed using N-glycosidase F treatment. Aliquots at various reaction time-points were assayed for ^125I-alpha-BTX binding in filter assay experiments. Samples were processed in duplicates (dark columns, N-glycosidase F treatment; light columns, control treatment).
To study the binding of alpha-BTX to alpha1-210 as an indication of correct protein folding, we tested both crude culture supernatants and the purified protein in “filter assay” experiments: Fifty nanograms of purified alpha1-210 or […] of culture supernatant was incubated at […] for 3 h with various concentrations of ^125I-alpha-BTX (specific activity 800,000 cpm/pmole) in a final volume of […] of PBS buffer, pH 7.5, 0.2% BSA. The samples were then diluted with 1 ml of 0.5% Triton X-100 in 20 mM Tris buffer, pH 7.5 (Triton buffer) and immediately filtered through two Whatman DE81 filters prewashed with Triton buffer. The filters were then washed twice with 1 ml of Triton buffer and the bound radioactivity measured on a gamma-counter. Samples without alpha1-210 were used to measure non-specific binding. Specific binding of alpha-BTX was also studied in competition experiments by addition of various amounts of unlabeled alpha-BTX to the sample.

[3] = test system: anti-AChR antibodies from MG sera; assay: Immunoadsorption of anti-AChR antibodies from MG sera by CNBr-Sepharose-immobilized subunit domains, RIA with human AChR from TE671 cells; assay type: binding; conditions: for percentage of anti-AChR antibodies eliminated, best-adsorbed sera: 13 of 64 (20%) MG sera, 2.5 ul serum
Description: FIG. 6 illustrates the immunoadsorption of anti-AChR antibodies from MG sera using immobilized alpha1-210 (black bars), gamma1-218 (grey bars) and epsilon1-219 (blank bars). Each subunit has been expressed in the yeast Pichia pastoris and the purified proteins have been covalently immobilized on CNBr-Sepharose beads. 64 MG positive sera were assayed for binding to human AChR after incubation with alpha1-210 immobilized on CNBr-Sepharose (together with BSA) or with just BSA immobilized on the same insoluble matrix. 2.5 ul of each MG patient serum were incubated with 0.2 ug immobilized alpha1-210 mixed with BSA or the same amount of BSA at […] for 2-3h (in a total volume of 0.16 ml) followed by centrifugation. Samples of the supernatants, each containing an amount corresponding to 0.9 ul of the treated MG sera were subsequently used in a typical RIA MG diagnostic test (Lindstrom et al., Meth. Enzymol. 74, 432460, 1981) with human AChR from TE671 cells. The percentage of immunoadsorption was estimated as described in the Example 3. Samples were processed in duplicates. Results shown (black bars) are an average of two experiments. Sera are sorted in decreasing percentage of immunoadsorption to immobilized alpha1-210.
FIG. 7 illustrates the immunoadsorption of anti-AChR antibodies from MG sera against immobilized alpha1-210 (black bars), gamma1-218 (gray bars) and a mix of both immobilized alpha1-210 and gamma1-218 (hatched bars). 9 MG sera were assayed for binding to human AChR after incubation of 20 fmoles anti-AChR MG antibodies with alpha1-210 (1 ug), or gamma1-218 (1 ug) or alpha1-210/gamma1-218 mix (containing 1 ug of each subunit) immobilized on CNBr-Sepharose. Incubation with just BSA immobilized to the same insoluble matrix served as a control to calculate the percent immunoadsorption against each of the subunits and the mix of both. After incubation with the Sepharose-immobilized proteins, sera were screened in a typical RIA experiment using TE671 AChR. The percentage of immunoadsorption was estimated as described in the Example 3. Samples were processed in duplicates. Results shown are an average of two experiments.
Immunoadsorption of MG autoantibodies by immobilized alpha1-210. 0.1 mg alpha1-210 mixed with 1.4 mg BSA was covalently bound to 0.5 gr CNBr-Sepharose according to manufacturer's protocol (Amersham). BSA was simply added to increase the protein/Sepharose ratio because the ratio of recombinant protein to Sepharose beads used would otherwise be too small; BSA is not necessary for larger scale experiments. In parallel, 1.5 mg BSA was bound to the same amount of CNBr-Sepharose under the same conditions as control. 2.5 ul MG patient sera were incubated with 0.2 ug immobilized alpha1-210 mixed with BSA, or the same amount of immobilized BSA alone, at 4° C. for 2-3 h (in a total volume of 0.16 ml) followed by centrifugation for bead precipitation. Samples of the supernatants, each containing an amount corresponding to 0.9 ul of these treated MG sera were subsequently used in a typical RIA MG diagnostic test (Lindstrom et al., Meth. Enzymol. 74, 432460, 1981) with human AChR from TE671 cells. The percentage of immunoadsorption was estimated as the ratio between the reduction in immunoprecipitated radiolabeled human AChR after incubation with alpha1-210 and the immunoprecipitated radiolabeled human AChR without incubation with alpha1-210 (incubation with plain immobilized BSA). 64 MG positive sera were assayed for binding to human AChR after incubation with immobilized alpha1-210 or BSA. […] We also tested immunoadsorption of the same set of MG sera by incubating 0.2 ug immobilized alpha1-210 with a fixed amount of anti-AChR antibodies (20 fmoles in variable volumes of MG sera depending on their titer) rather than a fixed serum volume.
Immunoadsorption of MG autoantibodies by immobilized gamma1-218 or epsilon1-219 domains. […]

[4] = test system: 125I-alpha-BTX; assay: 125I-alpha-BTX filter assay of alpha domain expressed in HEK293 cells (SFV vector); assay type: binding; conditions: expressed in HEK293 cells with recombinant SFV-1 vector
Description: […] Approximately 2×10^6 transfected cells were allowed to express the protein of interest. Cells and medium supernatant were collected after two days. Cells were washed in cocktail buffer (1×PBS pH7.4 with PMSF. 1 mM, aprotinin 5units/ml, leupeptin 5 micrograms/ml, iodoacetamide 1 mM). The medium supernatant (12 ml) was concentrated […] to a final volume of 2.5 ml and dialysed against PBS buffer at 4° C. To extract the receptor, the cell pellet was resuspended in 0.5 ml of cocktail-2% Triton-X100 and the mixture was left at 4° C. with mild agitation. The mixture was subsequently centrifuged at 15000 g for 15 min and the supernatant was tested for ^125I-alpha-BTX binding. The filter assay technique (as described in Example 1) was used to test whether the expressed protein was secreted in the medium supernatant or retained within the cell (in either the cytoplasm or the membrane).
Having established that the cloned product is functional, the recombinant SFV plasmid is linearized at SpeI site, purified and used in an in vitro mRNA synthesis using the mMESSAGE mMACHINE kit (Ambion Inc.) Approximately 20 micrograms of mRNA produced is obtained and used to electroporate 0.7 ml of 10^7 cells/ml HEK293 cells. We only use the recombinant SFV-1 vector without the helper plasmid at this stage. Both the cells and the supernatant are collected two days post-electroporation. […]

[5] = test system: alpha1-210; assay: Delta1-224 studied together with alpha1-210 in 125I-alpha-BTX binding experiments; set-up: species or system human

B1: alpha1-210 (protein)
chain: SEHETRLVAKLFKDYSSVVRPVEDHRQVVEVTVGLQLIQLINVDEVNQIVTTNVRLKQQWVDYNLKWNPDDYGGVKKIHIPSEKIWRPDLVLYNNADGDFAIVKFTKVLLQYTGHITWTPPAIFKSYCEIIVTHFPFDEQNCSMKLGTWTYDGSVVAINPESDQPDLSNFMESGEWVIKESRGWKHSVTY
modifications: glycosylated at residue 141
proportion of MG sera with high anti-alpha titers that recognized the protein [1]: 66%
125I-alpha-BTX binding after deglycosylation [2]: practically totally lost; also recorded: markedly impaired
binding of 125I-alpha-BTX (in words) [2]: high affinity
Kd ([2]; read-out: average Kd of 125I-alpha-BTX binding, series of experiments): 5.1 ± 2.4 nM
Kd ([2]; read-out: estimated Kd of 125I-alpha-BTX binding, representative experiment): 3.3 nM
immunoadsorption with fixed amount of anti-AChR antibodies compared with fixed serum volume ([3]; 0.2 ug immobilized protein, 20 fmoles antibodies in variable serum volumes): identical with the above immunoadsorption results
percentage of anti-AChR antibodies eliminated, best-adsorbed sera ([3]; 0.2 ug immobilized protein): more than 60%
percentage of anti-AChR antibodies eliminated, best-adsorbed sera ([3]; 0.2 ug immobilized protein, listed as immobilized alpha domain): more than 60%
average percentage of anti-AChR antibodies eliminated in all sera tested ([3]; all sera tested): 37%
percentage of immunoadsorption, intermediate sera ([3]; another 24 sera (37%) of 64): 20-60%
immunoadsorption of serum no. 3 ([3]; serum no. 3, 1 ug of each immobilized subunit, 20 fmoles antibody): 54%
amount of antibody eliminated by 1 ug immobilized protein ([3]; titration experiments, 0.25 ml serum of titer 5 nM): ≥ 1250 fmol
volume of MG serum from which 1 ug immobilized protein eliminates the anti-alpha antibodies ([3]; titration experiments, MG serum of titer 5 nM): at least 0.25 ml

B2: alpha 1-210: extracellular domain of human alpha AChR with ApoE leader and six histidines, expressed in HEK293 cells by SFV vector (protein)
chain: B1 chain
modifications: glycosylated at residue 141
ability to bind 125I-alpha-BTX [4]: good ability to bind

B3: delta1-224: N-terminal extracellular domain of human muscle AChR delta subunit expressed in Pichia pastoris, FLAG epitope (protein)
chain: DYKDDDDKLNEEERLIRHLFQEKGYNKELRPVAHKEESVDVALALTLSNLISLKEVEETLTTNVWIEHGWTDNRLKWNAEEFGNISVLRLPPDMVWLPEIVLENNNDGSFQISYSCNVLVYHYGFVYWLPPAIFRSSCPISVTYFPFDWQNCSLKFSSLKYTAKEITLSLKQDAKENRTYPVEWIIIDPEGFTENGEWEIVHRPARVNVDPRAPLDSPSRQDITFYLIIRRK
modifications: glycosylated
interaction between recombinant subunit domains [5]: temporary weak interaction
immunoadsorption of anti-AChR antibodies (in words) ([3]; immobilized on Sepharose-CNBr): lower but very significant percentages; also recorded: large fractions
